US10877024B2, “Methods of determining interferon having direct inhibitory effects on tumors and uses thereof” (SUPERLAB FAR EAST LIMITED, priority 2015, dated 2020)

Columns and labels:
[1] = system: Human Cervical Cancer Hela Xenografts; experiment: rSIFN-co on human cervical cancer Hela xenografts in nude mice; format: in vivo; conditions: for TV(mm^3, mean ± SD) (D 0): day 0; for % Inhibition / T/C (%) / TV(mm^3, mean ± SD) (D 28): day 28
Protocol: Then 1.5 mm^3 fragments were prepared for s.c. implantation into the animals.

A549 tumor cells = experiment: Cell viability, MTT assay, 1-6 days; format: cell-based, human; conditions: 10 μg/ml
Protocol: The cell survival rate was evaluated in a standard MTT assay [3-(4,5-dimethylthiazol-2-yl)-2,5-diphenyltetrazolium bromide assay, Sigma, St. Louis, Mo.). For the assay, about 20 μl MTT (at 4 mg/ml) was added to each well. The cells were incubated at 37° C. for 4 hr. After that, the supernatant of each well was drawn off carefully and then an equal volume (150 microliter) of dimethyl sulfoxide (DMSO) was added to each well and mixed thoroughly on a shaker for 15 min. The absorbance from the plates was read at 595 nm with a Thermo Scientific Microplate Reader (Thermo Fisher Scientific Inc., Lowell, Mass.). The relative cell viability was calculated as follows: Cell viability=(Treated group(OD595) minus blank(OD595))/(Control group(OD595) minus blank(OD595))×100%.

beta-catenin = experiment: Beta-catenin protein level by Western Blot; format: cell-based, human; conditions: 10 mcg/ml, 24, 48, 72 hr
Protocol: Cancer cells, A549 and Sw480, were cultured to about 85% confluency and put into 6 well plates. […] After treatment, the cells were harvested for Western Blot to detect the beta-catenin protein level, using its specific antibody, with GAPDH as endogenous loading control. The experiment was conducted in triplicate.
To determine the expression of various proteins, cells were harvested from the plates and total cellular protein were extracted using extraction reagents (Cat #: P0013) according to the manufacturer's protocol (Beyotime, China). The total protein concentration was determined by the Lowry Protein Assay kit (Bio-Rad, USA). […] The membranes were blocked with 5% skimmed milk, bovine serum albumin, 10 mmol/L Tris-HCl at pH 8.0, 150 mmol/L NaCl, and 0.05% Tween 20 overnight at 4° C. The blocked membranes were then incubated with primary antibodies (1:1000 dilutions), followed by secondary HRP-conjugated antibodies. Blots were visualized using Luminescence/Fluorescence Imaging LAS4000 System (GE Healthcare Life Sciences, USA) with super signal west pico chemiluminescent substrate kit (Thermo scientific, USA).
For this determination, the primary antibodies used were mouse monoclonal anti-beta-catenin antibodies (1:1000; Santa Cruz Technology, Santa Cruz, Calif.) and mouse monoclonal anti-GAPDH antibodies (1:2000) (Kangwei Biotechnology, China). […]

LRP6 = experiment: qPCR of Wnt-related co-receptor mRNA; format: cell-based, human; conditions: 10 μg/ml, 24 hr
Protocol: (§1) The regulation of LRP6/FZD6 by rSIFN-co was investigated. This was conducted by qPCR as performed in Example 9. […] After 24 hr of treatment, total cellular mRNA was isolated using TRIZOL Reagent, and cDNA was subjected to qPCR using specific primers of LRP6 and FZD6. The primers used were: LRP6 sense primer: 5′-[…]-3′ (SEQ ID NO: 4) and antisense primer: 5′-[…]-3′ (SEQ ID NO: 5), and FZD6 sense primer: 5′-[…]-3′ (SEQ ID NO: 6) and antisense primer: 5′-[…]-3′ (SEQ ID NO: 7). Experiments were conducted in triplicate and normalized with the Mock control group. Results were recorded as relative mRNA level of either LRP6 or FZD6 relative to GAPDH.

FZD6 = experiment: qPCR of Wnt-related receptor mRNA; format: cell-based, human; conditions: 10 μg/ml, 24 hr
Protocol: as §1

colon cancer SW620 cells = experiment: Cell migration assay across microporous membranes; format: cell-based, human; conditions: 10 μg/ml, 24 hr
Protocol: (§2) The cell migration assay was performed using 8 μm cell culture inserts in 24-well plates (Becton-Dickinson Biosciences, NJ, USA). Warm (37° C.) bicarbonate based culture medium without FBS was added to the interior of the inserts and to the bottoms of the wells, and were allowed to rehydrate for 2 hr in humidified tissue culture incubator at 37° C. in 5% CO2. After rehydration, the culture medium was carefully removed. […] In the lower compartment of the 24-well plates were placed 500 μl of complete medium with 10% FBS. After 24 hr at 37° C. under the regular culture conditions, the non-migrated cells in the upper part of the chamber membranes were removed with a cotton swab. The lower part of the culture inserts were fixed with 4% paraformaldehyde and stained with 2% crystal violet. The number of migrated cells on the opposite side of the chamber membranes from where the cells were placed was counted in each of the triplicate wells. Each experiment was repeated at least two times, each time with triplicate wells.

lung cancer A549 cells = experiment: Cell migration assay across microporous membranes; format: cell-based, human; conditions: 10 μg/ml, 24 hr, untreated Mock about 30
Protocol: as §2

[2] = system: procaspase-3, cleaved caspase-3, procaspase-8, cleaved caspase-8, PARP; experiment: Apoptosis-related molecular markers by Western Blot; format: cell-based, human; conditions: A549 and SW620 cells, 24 hr or 48 hr; interferons 10 mcg/ml
Text: Thereafter, apoptosis-related molecular markers were monitored by Western Blot. The primary antibodies used were mouse monoclonal anti-beta-tubulin (1:2000, Cat #: CW0098A) and mouse monoclonal anti-GAPDH (1:2000, Cat #: CW0100A) (Kangwei Biotechnology, China); mouse monoclonal anti-PARP (1:1000, Cat #: sc-2007, Santa Cruz Biotechnology, Inc.); rabbit monoclonal anti-procaspase 3 (1:1000, Cat #: 9665), and rabbit polyclonal anti-cleaved caspase 3 (1:1000, Cat #: 9661) (Cell Signaling Technology, USA); goat polyclonal anti-procaspase 8 (1:1000, Cat #: sc-6136, Santa Cruz Biotechnology, Inc); rabbit monoclonal anti-cleaved caspase 8 (1:1000, Cat #: 9496) (Cell Signaling Technology, USA).

[3] = system: phosphorylation of STAT1 (Tyr701), STAT2 (Tyr690), and STAT3 (Tyr705); experiment: p-STAT induction after B18R pre-incubation, Western blot; format: cell-based, human; conditions: IFN 1 ng/ml, B18R 10 ng/ml, 30 min, compared to IFNα-2b
[4] = 0.05 mg/mouse i.t. every other day
[5] = 0.10 mg/mouse i.t. every other day
[6] = 0.15 mg/mouse i.t. every other day

B1: rSIFN-co: Recombinant super-compound interferon; amino acid sequence SEQ ID NO: 1 (same as INFERGEN), encoded by novel nucleotide sequence SEQ ID NO: 2 (protein)
chain: MCDLPQTHSLGNRRALILLAQMRRISPFSCLKDRHDFGFPQEEFDGNQFQKAQAISVLHEMIQQTFNLFSTKDSSAAWDESLLEKFYTELYQQLNDLEACVIQEVGVEETPLMNVDSILAVKKYFQRITLYLTEKKYSPCAWEVVRAEIMRSFSLSTNLQERLRRKE
modifications: Amino acid sequence of recombinant interferon
TV(mm^3, mean ± SD) (D 0) [1, 4]: 135 ± 26 mm^3
% Inhibition [1, 4]: 46.67%
T/C (%) [1, 4]: 53.33%
TV(mm^3, mean ± SD) (D 28) [1, 4]: 886 ± 232 mm^3
TV(mm^3, mean ± SD) (D 0) [1, 5]: 135 ± 28 mm^3
% Inhibition [1, 5]: 46.67%
T/C (%) [1, 5]: 53.33%
TV(mm^3, mean ± SD) (D 28) [1, 5]: 865 ± 186 mm^3
TV(mm^3, mean ± SD) (D 0) [1, 6]: 136 ± 25 mm^3
% Inhibition [1, 6]: 40.40%
T/C (%) [1, 6]: 59.60%
TV(mm^3, mean ± SD) (D 28) [1, 6]: 1025 ± 400 mm^3
tolerability, signs of toxicity ([1]; 0.05-0.15 mg/mouse i.t. every other day, 28 days): tolerated the rSIFN-co treatments with no signs of toxicity
change in average body weight ([1]; 28-day treatment period): Very little change in average body weight
cell viability over time (MTT) (A549 tumor cells): also apparent for A549 cells for only about the first 3 days of treatment
beta-catenin protein level (beta-catenin; A549 cells): dramatically decreased beta-catenin protein level after treatment for 2 days (48 hr)
beta-catenin protein level (beta-catenin; SW480 cells): obvious after 72 hours of treatment
relative expression of the LRP6 mRNA (LRP6; A549 cells): significant reduction
relative expression of the LRP6 mRNA (LRP6; HT-29 cells): significant reduction
relative expression of the LRP6 mRNA (LRP6; SW620 cells): significant reduction
relative expression of FZD6 mRNA (FZD6; A549 cells): significant reduction
relative expression of FZD6 mRNA (FZD6; H460 cells): significant reduction
relative expression of FZD6 mRNA (FZD6; HT-29 cells): significant reduction
relative expression of FZD6 mRNA (FZD6; SW620 cells): significant reduction
tumor cell migration (colon cancer SW620 cells): Significant inhibition
mean number of migrating cells per field (lung cancer A549 cells): about 10 cells per field
level of cleaved caspase-3 and cleaved caspase-8 [2]: neither of the interferons, IFN alpha-2b nor rSIFN-co, caused any reduction in the level of procaspase-3 or procaspase-8 or PARP, or induced any enhancement
level of procaspase-3, procaspase-8 and PARP [2]: neither of the interferons, IFN alpha-2b nor rSIFN-co, caused any reduction
induction of phosphorylation on STAT1/2/3 after B18R pre-incubation ([3]; A549 cells): greater induction of phosphorylation on STAT1/2/3
induction of phosphorylation on STAT1/2/3 after B18R pre-incubation ([3]; Hela cells): greater induction of phosphorylation on STAT1/2/3
